Here are results for 8 molecules from paper PMC8512704, “A Uniform Benchmark for Testing SsrA-Derived Degrons in the Escherichia coli ClpXP Degradation Pathway” (Molecules, 2021).

T1: SspB (Escherichia coli, UniProt P0AFZ3 1-165)
T1 chain: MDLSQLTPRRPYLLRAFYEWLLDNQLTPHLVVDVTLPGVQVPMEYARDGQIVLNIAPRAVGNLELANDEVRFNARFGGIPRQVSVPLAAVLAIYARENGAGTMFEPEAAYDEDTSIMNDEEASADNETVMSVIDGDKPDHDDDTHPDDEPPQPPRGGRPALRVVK

B1: SspB (natural protein, Escherichia coli, UniProt P0AFZ3 1-165, looked up)
chain: T1 chain
B2: eGFP-AANDENYALAA (peptide)
chain: eGFP-AANDENYALAA
notes: ssrA tag of Escherichia coli, the 11 amino acids added by trans-translation (tmRNA), appended to the C-terminus of eGFP; Degron fused to the C-terminus of His-TEV-eGFP; also called eGFP-ssrA; eGFP-SsrA; source: E. coli ΔclpP Keio strain (JW0427) (earlier Top10), pBAD, purified (HisTrap and Superdex200 in tandem); not shown: His-TEV, N-terminal, kept; eGFP, N-terminal, kept
B3: eGFP-AANDENYSENY (peptide)
chain: eGFP-AANDENYSENY
notes: AANDENY motif of the ssrA tag followed by the SENY linker, appended to the C-terminus of eGFP; Degron fused to the C-terminus of His-TEV-eGFP; source: E. coli ΔclpP Keio strain (JW0427) (earlier Top10), pBAD, purified (HisTrap and Superdex200 in tandem); not shown: His-TEV, N-terminal, kept; eGFP, N-terminal, kept
B4: eGFP-AANDENYSENYADAS (peptide)
chain: eGFP-AANDENYSENYADAS
notes: ssrA tag variant with the SENY linker and the C-terminal ALAA replaced by ADAS, appended to the C-terminus of eGFP; Degron fused to the C-terminus of His-TEV-eGFP; source: E. coli ΔclpP Keio strain (JW0427) (earlier Top10), pBAD, purified (HisTrap and Superdex200 in tandem); not shown: His-TEV, N-terminal, kept; eGFP, N-terminal, kept
B5: eGFP-AANDENY (peptide)
chain: eGFP-AANDENY
notes: AANDENY motif of the E. coli ssrA tag, appended to the C-terminus of eGFP; Degron fused to the C-terminus of His-TEV-eGFP; source: E. coli ΔclpP Keio strain (JW0427) (earlier Top10), pBAD, purified (HisTrap and Superdex200 in tandem); not shown: His-TEV, N-terminal, kept; eGFP, N-terminal, kept
B6: eGFP-AANDENYSENYALAA (peptide)
chain: eGFP-AANDENYSENYALAA
notes: ssrA tag variant with the SENY linker between AANDENY and ALAA, appended to the C-terminus of eGFP; Degron fused to the C-terminus of His-TEV-eGFP; source: E. coli ΔclpP Keio strain (JW0427) (earlier Top10), pBAD, purified (HisTrap and Superdex200 in tandem); not shown: His-TEV, N-terminal, kept; eGFP, N-terminal, kept
B7: eGFP-AANDENYAANDENY (peptide)
chain: eGFP-AANDENYAANDENY
notes: two repeats of the AANDENY motif of the ssrA tag, appended to the C-terminus of eGFP; Degron fused to the C-terminus of His-TEV-eGFP; source: E. coli ΔclpP Keio strain (JW0427) (earlier Top10), pBAD, purified (HisTrap and Superdex200 in tandem); not shown: His-TEV, N-terminal, kept; eGFP, N-terminal, kept
B8: eGFP-AANDENYADAS (peptide)
chain: eGFP-AANDENYADAS
notes: ssrA tag variant with the C-terminal ALAA replaced by ADAS, appended to the C-terminus of eGFP; Degron fused to the C-terminus of His-TEV-eGFP; source: E. coli ΔclpP Keio strain (JW0427) (earlier Top10), pBAD, purified (HisTrap and Superdex200 in tandem); not shown: His-TEV, N-terminal, kept; eGFP, N-terminal, kept

No end group written: not given here.

ClpX, sequence (P0A6H1 whole entry): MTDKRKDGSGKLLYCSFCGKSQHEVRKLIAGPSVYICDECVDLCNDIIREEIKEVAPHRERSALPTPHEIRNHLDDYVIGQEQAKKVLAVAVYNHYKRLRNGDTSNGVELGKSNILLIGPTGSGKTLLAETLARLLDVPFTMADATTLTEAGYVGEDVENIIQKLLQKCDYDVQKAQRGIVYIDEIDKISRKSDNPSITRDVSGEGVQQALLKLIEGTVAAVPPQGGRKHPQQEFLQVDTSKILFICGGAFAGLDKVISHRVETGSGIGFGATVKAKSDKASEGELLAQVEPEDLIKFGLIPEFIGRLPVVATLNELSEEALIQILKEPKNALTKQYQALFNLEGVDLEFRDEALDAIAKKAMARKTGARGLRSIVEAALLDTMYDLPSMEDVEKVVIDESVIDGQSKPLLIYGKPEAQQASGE

One assay has as its target ClpX (Escherichia coli, UniProt P0A6H1 1-424). Briefly: cell-based or functional assay.
Settings: not given
As to B1, the “ClpX ATPase activity (NADH-coupled assay, 0.08 µM ClpX6, 30 °C) with increasing SspB2 (0-27.4 μM): increase of reaction velocity” value is ~2 fold.

For a further assay, the target named is T1, SspB. Briefly: MST.
Settings: not given
As to B2, the Ka came to 1.32e+07 M⁻¹.

Molecule B3 registered a Ka of 9.78e+06 M⁻¹.

Molecule B4 came in with a Ka of 3.37e+06 M⁻¹.

B5 showed a Ka of 1.08e+07 M⁻¹.

In turn, B6 registered a Ka of 7.8e+06 M⁻¹.

Turning to B7, the Ka was 9.56e+06 M⁻¹.

Molecule B8 showed a Ka of 3.02e+06 M⁻¹.

The target in another assay is T1, SspB. Briefly: MST.
Settings: not given
This is another data set of the same source.
In the case of B5, binding was characterised by a dissociation constant (Kd) of 110 nM. That is a sub-micromolar value.

Turning to B6, the affinity, expressed as Kd, was 140 nM.

Molecule B7 gave a Kd of 120 nM.

In another assay the target is B1. Briefly: MST; 50 nM eGFP-degron (eGFP fluorescence), SspB titrated 3.72 nM to 122 μM; 25 mM Hepes pH 7.6, 200 mM KCl, 5 mM MgCl2, 10% glycerol, 0.05% Tween 20; 15 min at RT; measured at 20 °C, Monolith NT.115. The conditions noted are these: both partners purified.
With B2, the Kd came out at 80 nM.

B3 displayed a dissociation constant (Kd) of 100 nM.

Regarding B4, the Kd came to 300 nM.

Consider B5, for which the binding result is listed as “binds”.

Take B6: the binding result is “binds”.

In the case of B7, the binding result is given as “binds”.

B8 came in with a Kd of 330 nM.
